The assay has as its target T1, human thyroid hormone receptor α (TRα-1), intact (human, UniProt P10827-2).
T1 sequence: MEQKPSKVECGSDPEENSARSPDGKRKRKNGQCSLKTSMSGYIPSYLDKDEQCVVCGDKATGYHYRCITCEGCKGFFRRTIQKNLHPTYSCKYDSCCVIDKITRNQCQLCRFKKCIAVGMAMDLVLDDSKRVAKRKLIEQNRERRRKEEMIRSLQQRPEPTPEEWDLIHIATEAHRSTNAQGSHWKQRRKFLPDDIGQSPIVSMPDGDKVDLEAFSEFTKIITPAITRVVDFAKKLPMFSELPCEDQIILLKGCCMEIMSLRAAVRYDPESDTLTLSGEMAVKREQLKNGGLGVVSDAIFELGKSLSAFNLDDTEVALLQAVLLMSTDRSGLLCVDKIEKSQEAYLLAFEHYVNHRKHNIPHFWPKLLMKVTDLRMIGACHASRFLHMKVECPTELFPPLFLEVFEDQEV
Briefly: Far Western: 35S-labelled TRα on blotted TR-TRAP complex (TRAP100 is one of the other TRAPs). The protocol:
For coimmunoprecipitation (7), 2 μl of anti-FLAG M2 affinity gel (Kodak) and 3 μl of ^35S-labeled input proteins were used. For Far Western analyses, 500 ng of purified TR-TRAP complex was resolved by SDS-PAGE and transferred onto a nitrocellulose membrane. The blots were probed with in vitro translated, ^35S-labeled human TRα-1 or TRα-1 C-terminus (residues 122–410) in the presence and absence of 10^-7 M T_3.
Figure 7A: FIG. 7. Ligand-dependent interaction between TRα and TRAP220. (A) Far Western. 500 ng of purified TR-TRAP complex was separated by SDS-PAGE (8% gel), blotted and probed with ^35S-labeled full length (TR) and C-terminal (TRα-C) hTRα in the presence and absence of 10^-7 M […] (T_3). The arrow head indicates the position of the TRAP220 band. (B) Co-immunoprecipitation of TR-TRAP220 from in vitro translated products. The indicated combinations of ^35S-labeled TRAP220, TRAP100 and FLAG-TRα were incubated in the presence and absence of […] (T_3), and subjected to immunoprecipitation with anti-FLAG antibodies (M2 agarose) that recognizes only FLAG-tagged TRα. Figure 7B: Figure 8A: FIG. 8. Nuclear hormone receptor interactions with […] and TRAP100. (A) Ligand-dependent interactions of GST-TRAP220/1 and 2 with ^35S-labeled TRα. […]

B1: Thyroid Receptor-associated protein (TRAP) 100 (other)
chain: MKVVNLKQAILQAWKERWSDYQWAINMKKFFPKGATWDILNLADALLEQAMIGPSPNPLILSYLKYAISSQMVSYSSVLTAISKFDDFSRDLCVQALLDIMDMFCDRLSCHGKAEECIGLCRALLSALHWLLRCTAASAERLREGLEAGTPAAGEKQLAMCLQRLEKTLSSTKNRALLHIAKLEEASSWTAIEHSLLKLGEILANLSNPQLRSQAEQCGTLIRSIPTMLSVHAEQMHKTGFPTVHAVILLEGTMNLTGETQSLVEQLTMVKRMQHIPTPLFVLEIWKACFVGLIESPEGTEELKWTAFTFLKIPQVLVKLKKYSHGDKDFTEDVNCAFEFLLKLTPLLDKADQRCNCDCTNFLLQECGKQGLLSEASVNNLMAKRKADREHAPQQKSGENANIQPNIQLILRAEPTVTNILKTMDADHSKSPEGLLGVLGHMLSGKSLDLLLAAAAATGKLKSFARKFINLNEFTTYGSEESTKPASVRALLFDISFLMLCHVAQTYGSEVILSESRTGAEVPFFETWMQTCMPEEGKILNPDHPCFRPDSTKVESLVALLNNSSEMKLVQMKWHEACLSISAAILEILNAWENGVLAFESIQKITDNIKGKVCSLAVCAVAWLVAHVRMLGLDEREKSLQMIRQLAGPLFSENTLQFYNERVVIMNSILERMCADVLQQTATQIKFPSTGVDTMPYWNLLPPKRPIKEVLTDIFAKVLEKGWVDSRSIHIFDTLLHMGGVYWFCNNLIKELLKETRKEHTLRAVELLYSIFCLDMQQVTLVLLGHILPGLLTDSSKWHSLMDPPGTALAKLAVWCALSSYSSHKGQASTRQKKRHREDIEDYISLFPLDDVQPSKLMRLLSSNEDDANILSSPTDRSMSSSLSASQLHTVNMRDPLNRVLANLFLLISSILGSRTAGPHTQFVQWFMEECVDCLEQGGRGSVLQFMPFTTVSELVKVSAMSSPKVVLAITDLSLPLGRQVAAKAIAAL
For the molecule B1, the binding result is “no binding”.

Values taken from patent US6248520, “Nucleic acid molecules encoding nuclear hormone receptor coactivators and uses thereof” (The Rockefeller University, dated 2001).
